Source: the supplement of paper PMC10126150
± gives the standard deviation of the averaged measurements.

System: ATP
Assay: switch fluorescence ratio, 500 uM ATP over buffer (Cy3 cluster intensity, sum of 5 cycles each) (fold (ratio)); higher = stronger signal-on switching upon ATP binding; sequences stand for … in TCGTCGGCAGCGTCAGATGTGTATAAGAGACAGTTTTTTTTTTTTTTTTTTTTTTTTT…TC
Details: aptamer strand: ATP DNA aptamer (quencher-CACCTGGGGGAGTATTGCGGAGGAAGG + anchor), 100 nM annealed; ATP concentration: 500 uM
How it was run: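 The quencher-labelled ATP aptamer, at 100 nM, was annealed to Cy3-labelled switching-strand clusters on a modified Illumina MiSeq flow-cell. The clusters were imaged in selection buffer, then after 15 min with 500 uM ATP at 22 °C, and this buffer/ATP cycle ran five times with NaOH stripping and re-annealing between runs. Per-cluster fluorescence ratios, summed target-cycle over summed buffer-cycle Cy3 intensity, were averaged per switch-domain sequence. Clusters outside 100-1000 RFU were excluded.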
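Note: ATP exposure 15 min at 22 °C before imaging.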

Row | Sequence | switch fluorescence ratio
1 | TTCTACTGAT | 1.32 ± 0.39
2 | ACTGGGCGGA | 0.996 ± 0.015
3 | ATTAAGATGT | 1.002 ± 0.0049
4 | TGGGTGCGG | 0.984 ± 0.026
5 | CCTTATTGTC | 0.997 ± 0.024
6 | GGTGCTACAC | 1.04 ± 0.025
7 | AGTGGTGGCT | 1.04 ± 0.018
8 | AAGGGGGTCC | 1.03 ± 0.036
9 | GCTTTTCTTG | 1.01 ± 0.011
10 | GAGGGACTGT | 0.972 ± 0.026
11 | TTATAAGTAT | 1 ± 0.031
12 | GGCTTCTTGT | 1.01 ± 0.009
13 | GCGGTGGGTG | 0.994 ± 0.023
14 | AAGGGTAAAT | 0.996 ± 0.033
15 | TCACAATGCG | 1.06 ± 0.064
16 | GATTGAGAAG | 0.996 ± 0.023
17 | CCTGGCTCAT | 1.06 ± 0.037
18 | TGTTAAAGGG | 1.03 ± 0.024
19 | TACGTTGAGC | 1.02 ± 0.02
20 | ATATGGTTGA | 0.964 ± 0.049
21 | CAGAAGCGGA | 1.19 ± 0.051
22 | TTAAGCTCGC | 0.986 ± 0.045
23 | ACAGTTTTGC | 0.985 ± 0.02

Row | Sequence | switch fluorescence ratio
24 | GCTGATTTTT | 0.994 ± 0.025
25 | CGCCCGCACG | 1.93 ± 0.5
26 | GCTGGCAATT | 1.027 ± 0.0069
27 | TTGATATGAG | 0.989 ± 0.048
28 | CCTTTGCTGT | 1.073 ± 0.0024
29 | CGGGGACGGC | 0.98 ± 0.025
30 | CTGACTTCAT | 1.0521 ± 0.00045
31 | GAGAAGGGCA | 1.02 ± 0.05
32 | CGTCTAATAG | 1.18 ± 0.03
33 | GCGAGTTGGG | 0.985 ± 0.022
34 | CAAGTTAATT | 0.987 ± 0.011
35 | TTTTGCAATT | 1.98 ± 1.3
36 | TTATATAAGT | 1.02 ± 0.023
37 | ACATGATGGC | 1.05 ± 0.018
38 | GATGTTGTTG | 0.997 ± 0.054
39 | AAGTAAAAAT | 1.05 ± 0.036
40 | TTGGGTTGTT | 0.986 ± 0.033
41 | TTAAGGGCCA | 0.9709 ± 0.0035
42 | CGTGTGCCGA | 1.01 ± 0.057
43 | CTAAACAGAA | 0.9996 ± 0.0027
44 | GGACTTGTGA | 0.997 ± 0.018
45 | ACGGGGTCTA | 0.993 ± 0.027
46 | CGGATTTTCA | 0.9999 ± 0.0067

Row | Sequence | switch fluorescence ratio
47 | GAAGGAATAG | 1.66 ± 0.92
48 | TTGGGACTTC | 1.03 ± 0.012
49 | AAGTCGGATG | 1.04 ± 0.079
50 | AAGGTAACGG | 0.972 ± 0.038
51 | ACGTGTGGGG | 1.05 ± 0.034
52 | TGAATTTTTA | 1 ± 0.011
53 | GGGTTGTGAA | 0.994 ± 0.037
54 | TCCTCGAGCT | 1.82 ± 1.2
55 | GAATAGGGGC | 0.965 ± 0.01
56 | AATCAGCATT | 1.08 ± 0.076
57 | CGGTTGTCGG | 0.997 ± 0.013
58 | CTTTGTTGG | 0.9646 ± 0.0024
59 | TAGGTCGGGT | 0.984 ± 0.035
60 | AACTTATTTT | 1 ± 0.003
61 | TAGGTTCTAA | 1.06 ± 0.079
62 | ATGCTAACGT | 0.9818 ± 0.0032
63 | TTTGATGGTA | 0.943 ± 0.026
64 | AAGGCACCGT | 1.03 ± 0.038
65 | CTTCGCCTTT | 1.06 ± 0.016
66 | GCGTTGTGGG | 1.05 ± 0.024
67 | CCGGTTACGT | 1.17 ± 0.2
68 | GGGTGATGGC | 1.01 ± 0.013
69 | GTTTTTACTG | 1.05 ± 0.081

Row | Sequence | switch fluorescence ratio
70 | GGATTGATTT | 0.993 ± 0.038
71 | GGGGGCATGA | 0.966 ± 0.015
72 | TGGTTGGAGC | 0.997 ± 0.029
73 | ATATTGGGTT | 0.9708 ± 0.0074
74 | GGTTAGTACA | 1.01 ± 0.041
75 | GGGGTTGGAG | 0.979 ± 0.022
76 | TTTGATTGAA | 0.975 ± 0.03
77 | ACCGGTTATA | 1.03 ± 0.038
78 | ATGTGCTGTT | 0.99802 ± 8.7e-05
79 | CGAGGGGTTA | 1.01 ± 0.022
80 | ATGGCAGACT | 1.02 ± 0.052
81 | TCATAGTCGG | 1 ± 0.024
82 | GGGGGTTATG | 1.01 ± 0.024
83 | ATTAATCGGC | 0.9735 ± 0.0033
84 | ACACCCTTGG | 1.08 ± 0.098
85 | ATTTCAATTT | 1.01 ± 0.02
86 | CATTTTTTTA | 0.96084 ± 0.00082
87 | ACTTGCACTC | 1.34 ± 0.057
88 | GCTGTTTTGT | 1.004 ± 0.0092
89 | ATGTATCGGC | 1.01 ± 0.06
90 | TTTTCTTATG | 0.96 ± 0.013
91 | TCACGTTCAA | 1.06 ± 0.022
92 | TGCTGCGACG | 1.003 ± 0.0022

Row | Sequence | switch fluorescence ratio
93 | TTTCGAAACG | 1.12 ± 0.21
94 | ATAATGTGGG | 0.99618 ± 0.00014
95 | AGCTATTTGC | 0.983 ± 0.048
96 | TCGCTTGCGG | 1 ± 0.032
97 | GTTCCTATGA | 1.01 ± 0.043
98 | CTAAATGGGA | 1.01 ± 0.029
99 | AGGAAAAAAG | 1 ± 0.032
100 | TTAAGCGTAG | 1.01 ± 0.013
101 | CTAAATCGGT | 0.987 ± 0.061
102 | TCTATTAGTA | 0.932 ± 0.062
103 | TATTCATGTT | 0.991 ± 0.029
104 | CATGATTAAT | 0.962 ± 0.033
105 | TTCGTGATAG | 1.308 ± 0.0028
106 | GGGACGGCTC | 0.993 ± 0.049
107 | TGAAAAAGTT | 1.32 ± 0.47
108 | GCATGGCTGC | 1.03 ± 0.036
109 | GGGCCTCGGG | 0.953 ± 0.04
110 | TCGAGCAGGG | 1.07 ± 0.055
111 | TTCAGAGGCG | 1.04 ± 0.011
112 | CGGTTTACGG | 0.986 ± 0.011
113 | GGGGGGGCGC | 1.02 ± 0.035
114 | ACTGGTTTTG | 1.01 ± 0.022
115 | CGGCGTGAGC | 0.993 ± 0.067

Row | Sequence | switch fluorescence ratio
116 | GGGAAAGGAC | 1.03 ± 0.032
117 | AAAGCCACGC | 1.11 ± 0.032
118 | TAAACCCTGC | 1.07 ± 0.032
119 | ATACTAGGAG | 1 ± 0.026
120 | TACGTAGGCA | 1.073 ± 0.0077
121 | TTAGTGGGGC | 1.03 ± 0.041
122 | CGAGTTAAAA | 1.002 ± 0.0069
123 | GTTGGGTATA | 0.996 ± 0.014
124 | CTAATTTTTT | 1.01 ± 0.025
125 | GGCTTAGGGC | 1.02 ± 0.027
126 | TCCCCGTCGA | 1.88 ± 1.2
127 | TTTAATCATT | 1 ± 0.029
128 | TGGGTGGGTC | 1.05 ± 0.069
129 | ACATGGGTGC | 1.11 ± 0.063
130 | ATCGATATTG | 0.991 ± 0.029
131 | CTTAGATAGT | 1.01 ± 0.0098
132 | GGCGAAAGGG | 1.02 ± 0.026
133 | TGTGGTGGTG | 0.978 ± 0.049
134 | CATAACGGGG | 0.957 ± 0.04
135 | TATGTGTTGG | 0.992 ± 0.025
136 | TATAACTTGA | 1.02 ± 0.0048
137 | CCTCGGGGGG | 1.06 ± 0.1
138 | CTCTTGGGGC | 0.987 ± 0.041

Row | Sequence | switch fluorescence ratio
139 | CGTAAAACTA | 1.03 ± 0.042
140 | TTAATGCAGG | 1.006 ± 0.006
141 | AGGGTGTGCC | 1.01 ± 0.018
142 | TAAAGGAAAG | 1.02 ± 0.03
143 | CCAATAGGCA | 1.046 ± 0.0078
144 | AAGGGGTATT | 1.01 ± 0.027
145 | GTACGAGTCC | 1.01 ± 0.015
146 | CTTTTGACTG | 1.05 ± 0.043
147 | CGCATGCTGG | 1.02 ± 0.024
148 | TCTGGTTAGC | 1.03 ± 0.026
149 | AGGAATATGG | 1.04 ± 0.1
150 | TCAGGGGAAG | 0.999 ± 0.015
151 | TCTATTATAC | 1.23 ± 0.13
152 | AAAAGAGGTT | 0.9996 ± 0.0072
153 | GGATAAGGAC | 0.984 ± 0.019
154 | TGAATAGGGG | 0.989 ± 0.0095
155 | CATATTTCGC | 1.03 ± 0.029
156 | AGGGGGTCCG | 1.03 ± 0.049
157 | GCTGTAGCGG | 1.02 ± 0.031
